Like-named read-outs stand apart in the source and are kept apart here.
Experiments:
[1] = molecular target: T1, Full-length SARS-CoV-1 Spike on HEK 293T cells (SARS-CoV-1 (SARS-CoV), isolate not …, UniProt P59594)
[2] = molecular target: T2, Recombinant S1 Wuhan (residues 1–674) (SARS-CoV-2, UniProt P0DTC2)
[3] = molecular target: Recombinant stabilized SARS-CoV-2 spike for ELISA (Wuhan) (SARS-CoV-2, Wuhan, UniProt P0DTC2, stabilised)
[4] = molecular target: T3, Full-length SARS-CoV-2 Spike on HEK 293T cells (SARS-CoV-2, UniProt P0DTC2)
[5] = molecular target: T2, Recombinant S1 Wuhan (residues 1–674); assay: ELISA; conditions: both partners purified
[6] = molecular target: T4, Full-length 229E Spike on HEK 293T cells (human coronavirus 229E, isolate not …, UniProt P15423); assay: flow cytometry on cells; conditions: one partner purified
T4 construct: source: HEK293T, transfected (pcDNA3.1+), on the cell surface

[7] = molecular target: T1, Full-length SARS-CoV-1 Spike on HEK …; assay: flow cytometry on cells; conditions: one partner purified
[8] = molecular target: T5, Full-length MERS Spike on HEK 293T cells (MERS-CoV, isolate  (entry: …, UniProt K9N5Q8)); assay: flow cytometry on cells; conditions: one partner purified
T5 construct: source: HEK293T, transfected (pcDNA3.1+), on the cell surface

[9] = molecular target: T6, Full-length OC43 Spike on HEK 293T cells (human coronavirus OC43, isolate not …, UniProt P36334); assay: flow cytometry on cells; conditions: one partner purified
T6 construct: source: HEK293T, transfected (pcDNA3.1+), on the cell surface

[10] = molecular target: T3, Full-length SARS-CoV-2 Spike on HEK …; assay: flow cytometry on cells; conditions: one partner purified
[11] = molecular target: T7, Full-length NL63 Spike on HEK 293T cells (human coronavirus NL63, isolate not …, UniProt Q6Q1S2); assay: flow cytometry on cells; conditions: one partner purified
T7 construct: source: HEK293T, transfected (pcDNA3.1+), on the cell surface

Measured: binding result

B1: VA14_47 (antibody, V domains shown)
VH: EVQLVESGGGVVQPGRSLRLSCGGSGFTFSSHAMHWVRQAPGKGLEWVAVISYDGSYQYYADSVKGRFTISRDNSKNALYLQMNSLRVEDTAIYYCARDTPDLETYYFDCWGQGTLVTVSS
VL: EIVMTQSPGTLSLSPGERATLSCRASQSVSSSYLAWYQQKPGQAPRLLIYSACSRATGIPDRFSGSGSGTDFTLTISRLEPEDFAVYYCQQYGDSPRGSFGQGTKVDIK
binds: [1] | [2] | [3] | [4]

B2: P008_60 IgG (antibody, V domains shown)
VH: EVQLVESGGGVVQPGRSLRLTCAASGFIFSSYGMHWVRQAPGKGLEWVAVISYDGSYKYYADSVKGRFTISRDNSKNTLYLQMNSLRAEDTAVYYCTKADYYDFWSGYQKTYYYYMDVWGKGTTVTISS
VL: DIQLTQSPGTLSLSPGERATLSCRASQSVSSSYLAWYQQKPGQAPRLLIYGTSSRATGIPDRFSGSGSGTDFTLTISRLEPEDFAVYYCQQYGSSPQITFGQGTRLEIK
notes: also called mAb P008_60; P008_060; source: HEK-293F, co-transfected heavy and light plasmids, purified (protein G)
binds: [5] | [7] | [10]
no binding (tested: 25 μg/mL): [6] | [8] | [9] | [11]

Source: paper PMC9365860 (Cell Reports, 2022)
